These results are taken from paper PMC7708043 (Nucleic Acids Research, 2020).

What all share (test): FRET or BRET
One experiment concerns the target T1, mEGFP-ALC1 (UniProt Q86WJ1 1-897).
T1 sequence (looked up): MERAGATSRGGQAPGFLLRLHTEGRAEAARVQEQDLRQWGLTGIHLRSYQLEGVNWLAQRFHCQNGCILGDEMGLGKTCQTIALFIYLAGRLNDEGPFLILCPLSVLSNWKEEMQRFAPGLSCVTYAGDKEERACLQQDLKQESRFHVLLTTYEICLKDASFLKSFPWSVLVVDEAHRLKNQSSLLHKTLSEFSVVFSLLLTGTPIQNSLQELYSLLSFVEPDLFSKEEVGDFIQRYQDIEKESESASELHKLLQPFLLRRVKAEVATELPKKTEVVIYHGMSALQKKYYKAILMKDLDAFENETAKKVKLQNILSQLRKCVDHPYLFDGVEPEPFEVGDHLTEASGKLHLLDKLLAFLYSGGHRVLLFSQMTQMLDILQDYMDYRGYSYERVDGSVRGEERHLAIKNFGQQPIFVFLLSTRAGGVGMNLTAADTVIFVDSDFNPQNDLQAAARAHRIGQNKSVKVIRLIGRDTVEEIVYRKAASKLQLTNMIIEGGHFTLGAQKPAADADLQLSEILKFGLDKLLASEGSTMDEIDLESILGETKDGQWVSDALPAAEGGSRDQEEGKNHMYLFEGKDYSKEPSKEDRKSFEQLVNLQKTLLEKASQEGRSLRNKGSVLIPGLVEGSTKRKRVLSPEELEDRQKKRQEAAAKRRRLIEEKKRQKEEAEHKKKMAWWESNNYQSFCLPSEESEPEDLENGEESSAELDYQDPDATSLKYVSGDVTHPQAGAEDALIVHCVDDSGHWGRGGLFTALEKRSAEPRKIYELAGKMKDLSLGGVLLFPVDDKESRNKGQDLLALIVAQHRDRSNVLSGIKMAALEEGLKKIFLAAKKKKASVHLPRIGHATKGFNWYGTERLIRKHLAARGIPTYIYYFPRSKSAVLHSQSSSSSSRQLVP

The target of experiment [1] is T2, mEGFP-PARP1 (UniProt P09874 1-1014).
In experiment [2] the target is T2, mEGFP-PARP1. This is another data set of the same source.

T2 sequence (P09874 whole entry): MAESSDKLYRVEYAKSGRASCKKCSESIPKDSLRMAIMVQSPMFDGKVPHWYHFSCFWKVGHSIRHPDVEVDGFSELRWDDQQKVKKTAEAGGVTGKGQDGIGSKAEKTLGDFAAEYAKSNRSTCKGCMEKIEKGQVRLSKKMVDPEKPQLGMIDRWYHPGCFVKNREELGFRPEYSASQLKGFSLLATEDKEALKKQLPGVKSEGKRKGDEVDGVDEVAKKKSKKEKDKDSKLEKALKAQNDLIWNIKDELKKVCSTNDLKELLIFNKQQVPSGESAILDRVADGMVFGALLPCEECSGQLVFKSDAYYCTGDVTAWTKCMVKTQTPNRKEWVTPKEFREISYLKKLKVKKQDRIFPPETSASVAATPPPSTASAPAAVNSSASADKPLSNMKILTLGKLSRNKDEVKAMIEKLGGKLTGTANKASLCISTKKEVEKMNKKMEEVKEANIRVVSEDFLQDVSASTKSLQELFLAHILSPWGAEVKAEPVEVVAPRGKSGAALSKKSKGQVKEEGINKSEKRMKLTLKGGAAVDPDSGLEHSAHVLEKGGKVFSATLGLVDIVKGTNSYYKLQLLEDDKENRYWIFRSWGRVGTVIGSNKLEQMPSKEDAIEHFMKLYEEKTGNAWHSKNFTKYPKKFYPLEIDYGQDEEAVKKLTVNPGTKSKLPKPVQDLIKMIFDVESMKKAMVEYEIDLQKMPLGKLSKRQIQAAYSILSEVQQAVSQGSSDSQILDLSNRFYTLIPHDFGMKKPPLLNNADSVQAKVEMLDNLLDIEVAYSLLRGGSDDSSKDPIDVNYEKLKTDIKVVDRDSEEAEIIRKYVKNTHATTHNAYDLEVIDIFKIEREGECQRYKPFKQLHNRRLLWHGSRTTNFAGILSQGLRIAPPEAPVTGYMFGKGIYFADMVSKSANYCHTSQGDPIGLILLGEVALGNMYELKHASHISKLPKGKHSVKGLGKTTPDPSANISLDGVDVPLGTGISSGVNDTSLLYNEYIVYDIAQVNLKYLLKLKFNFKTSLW

B1: mCherry-TRIM33 (natural protein, UniProt Q9UPN9 1-1127, looked up)
chain: MAENKGGGEAESGGGGSGSAPVTAGAAGPAAQEAEPPLTAVLVEEEEEEGGRAGAEGGAAGPDDGGVAAASSGSAQAASSPAASVGTGVAGGAVSTPAPAPASAPAPGPSAGPPPGPPASLLDTCAVCQQSLQSRREAEPKLLPCLHSFCLRCLPEPERQLSVPIPGGSNGDIQQVGVIRCPVCRQECRQIDLVDNYFVKDTSEAPSSSDEKSEQVCTSCEDNASAVGFCVECGEWLCKTCIEAHQRVKFTKDHLIRKKEDVSESVGASGQRPVFCPVHKQEQLKLFCETCDRLTCRDCQLLEHKEHRYQFLEEAFQNQKGAIENLLAKLLEKKNYVHFAATQVQNRIKEVNETNKRVEQEIKVAIFTLINEINKKGKSLLQQLENVTKERQMKLLQQQNDITGLSRQVKHVMNFTNWAIASGSSTALLYSKRLITFQLRHILKARCDPVPAANGAIRFHCDPTFWAKNVVNLGNLVIESKPAPGYTPNVVVGQVPPGTNHISKTPGQINLAQLRLQHMQQQVYAQKHQQLQQMRMQQPPAPVPTTTTTTQQHPRQAAPQMLQQQPPRLISVQTMQRGNMNCGAFQAHQMRLAQNAARIPGIPRHSGPQYSMMQPHLQRQHSNPGHAGPFPVVSVHNTTINPTSPTTATMANANRGPTSPSVTAIELIPSVTNPENLPSLPDIPPIQLEDAGSSSLDNLLSRYISGSHLPPQPTSTMNPSPGPSALSPGSSGLSNSHTPVRPPSTSSTGSRGSCGSSGRTAEKTSLSFKSDQVKVKQEPGTEDEICSFSGGVKQEKTEDGRRSACMLSSPESSLTPPLSTNLHLESELDALASLENHVKIEPADMNESCKQSGLSSLVNGKSPIRSLMHRSARIGGDGNNKDDDPNEDWCAVCQNGGDLLCCEKCPKVFHLTCHVPTLLSFPSGDWICTFCRDIGKPEVEYDCDNLQHSKKGKTAQGLSPVDQRKCERLLLYLYCHELSIEFQEPVPASIPNYYKIIKKPMDLSTVKKKLQKKHSQHYQIPDDFVADVRLIFKNCERFNEMMKVVQVYADTQEINLKADSEVAQAGKAVALYFEDKLTEIYSDRTFAPLPEFEQEEDDGEVTEDSDEDFIQPRRKRLKSDERPVHIK
For B1, in the experiment with mEGFP-ALC1, the “median FRET efficiency (at the damage site)” value was determined as 2.2%.

B2: mCherry-ALC1 (natural protein, UniProt Q86WJ1 1-897, looked up)
chain: MERAGATSRGGQAPGFLLRLHTEGRAEAARVQEQDLRQWGLTGIHLRSYQLEGVNWLAQRFHCQNGCILGDEMGLGKTCQTIALFIYLAGRLNDEGPFLILCPLSVLSNWKEEMQRFAPGLSCVTYAGDKEERACLQQDLKQESRFHVLLTTYEICLKDASFLKSFPWSVLVVDEAHRLKNQSSLLHKTLSEFSVVFSLLLTGTPIQNSLQELYSLLSFVEPDLFSKEEVGDFIQRYQDIEKESESASELHKLLQPFLLRRVKAEVATELPKKTEVVIYHGMSALQKKYYKAILMKDLDAFENETAKKVKLQNILSQLRKCVDHPYLFDGVEPEPFEVGDHLTEASGKLHLLDKLLAFLYSGGHRVLLFSQMTQMLDILQDYMDYRGYSYERVDGSVRGEERHLAIKNFGQQPIFVFLLSTRAGGVGMNLTAADTVIFVDSDFNPQNDLQAAARAHRIGQNKSVKVIRLIGRDTVEEIVYRKAASKLQLTNMIIEGGHFTLGAQKPAADADLQLSEILKFGLDKLLASEGSTMDEIDLESILGETKDGQWVSDALPAAEGGSRDQEEGKNHMYLFEGKDYSKEPSKEDRKSFEQLVNLQKTLLEKASQEGRSLRNKGSVLIPGLVEGSTKRKRVLSPEELEDRQKKRQEAAAKRRRLIEEKKRQKEEAEHKKKMAWWESNNYQSFCLPSEESEPEDLENGEESSAELDYQDPDATSLKYVSGDVTHPQAGAEDALIVHCVDDSGHWGRGGLFTALEKRSAEPRKIYELAGKMKDLSLGGVLLFPVDDKESRNKGQDLLALIVAQHRDRSNVLSGIKMAALEEGLKKIFLAAKKKKASVHLPRIGHATKGFNWYGTERLIRKHLAARGIPTYIYYFPRSKSAVLHSQSSSSSSRQLVP
For B2, the “median FRET efficiency (at the damage site)” value in the experiment with mEGFP-PARP1 [1] was found to be 5.5%. For the same molecule, in the experiment with mEGFP-PARP1 [2], the “median FRET efficiency (1 min after damage)” value was determined as 5.8% and the “median FRET efficiency (5 min after damage)” value is 3.8%.
